Data from the supplement of paper PMC6757056.
± gives the standard deviation of the averaged measurements.

B1: library; a variant is named by its letters at N, in order (parent)
chain: GCUGUCACCGGUGUAUUACCCUAGUGGUCGACCGGUCUGAUGAGUCUNNNNNNAGACGAAACAGC

Assays:
hypoxanthine [1] = variants of: B1; test: normalized RNA/DNA level with ligand (relative to sTRSVctl = 100) (log10 (% of sTRSVctl)); ligand: hypoxanthine (xanthine aptamer); higher = less ribozyme self-cleavage, higher mRNA level; settings: ligand concentration (+) RNA-Seq: 5 mM, HEK293T, reporter: mCherry (pCS4076), ligand present: yes
How it was run: (§1)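 HEK293T cells received ligand, where used, 1 h before being transfected with 4 µg per 6-well well of library plasmids encoding reporter-linked ribozyme switches. After 72 h, RNA was extracted with EDTA and sequenced. RNA level was derived from RNA reads per DNA read, normalized to a spiked-in non-cleaving sequence or the top sequences, then scaled and log-transformed. Values were ×100 then log10, the top set was 25 sequences, and the minimum was 100 DNA reads.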

hypoxanthine [2] = variants of: B1; test: normalized RNA/DNA level without ligand (relative to sTRSVctl = 100) (log10 (% of sTRSVctl)); ligand: hypoxanthine (xanthine aptamer); higher = less ribozyme self-cleavage, higher mRNA level; settings: HEK293T, reporter: mCherry (pCS4076), ligand present: no
How it was run: as §1

| Variant | normalized RNA/DNA level with ligand (log10) (hypoxanthine [1]) | normalized RNA/DNA level without ligand (log10) (hypoxanthine [2]) |
| --- | --- | --- |
| GCUGUCACCGGUGUAUUACCCUAGUGGUCGACCGGUCUGAUGAGUCUAGACACAGACGAAACAGC [AGACAC] | 1.92 ± 0.025 | 1.76 ± 0.033 |
| GCUGUCACCGGUGUAUUACCCUAGUGGUCGACCGGUCUGAUGAGUCUGUUCGCAGACGAAACAGC [GUUCGC] | 1.97 ± 0.025 | 1.96 ± 0.048 |
| GCUGUCACCGGUGUAUUACCCUAGUGGUCGACCGGUCUGAUGAGUCUUCAUGUAGACGAAACAGC [UCAUGU] | 1.92 ± 0.038 | 1.628 ± 0.0081 |
| GCUGUCACCGGUGUAUUACCCUAGUGGUCGACCGGUCUGAUGAGUCUUACCAUAGACGAAACAGC [UACCAU] | 1.914 ± 0.0031 | 1.832 ± 0.0068 |
| GCUGUCACCGGUGUAUUACCCUAGUGGUCGACCGGUCUGAUGAGUCUUGCCUUAGACGAAACAGC [UGCCUU] | 1.939 ± 0.0041 | 1.9 ± 0.093 |
| GCUGUCACCGGUGUAUUACCCUAGUGGUCGACCGGUCUGAUGAGUCUCUAAGAAGACGAAACAGC [CUAAGA] | 1.947 ± 0.013 | 1.838 ± 0.011 |
| GCUGUCACCGGUGUAUUACCCUAGUGGUCGACCGGUCUGAUGAGUCUCACAGUAGACGAAACAGC [CACAGU] | 1.926 ± 0.0077 | 1.844 ± 0.0086 |
| GCUGUCACCGGUGUAUUACCCUAGUGGUCGACCGGUCUGAUGAGUCUGAGCCCAGACGAAACAGC [GAGCCC] | 1.99 ± 0.053 | 1.906 ± 0.013 |
| GCUGUCACCGGUGUAUUACCCUAGUGGUCGACCGGUCUGAUGAGUCUUCUGGUAGACGAAACAGC [UCUGGU] | 1.96 ± 0.031 | 1.69 ± 0.084 |
| GCUGUCACCGGUGUAUUACCCUAGUGGUCGACCGGUCUGAUGAGUCUCCUACUAGACGAAACAGC [CCUACU] | 1.98 ± 0.13 | 1.96 ± 0.021 |
| GCUGUCACCGGUGUAUUACCCUAGUGGUCGACCGGUCUGAUGAGUCUCUAUGUAGACGAAACAGC [CUAUGU] | 1.952 ± 0.0085 | 1.88 ± 0.019 |
| GCUGUCACCGGUGUAUUACCCUAGUGGUCGACCGGUCUGAUGAGUCUCGCUCUAGACGAAACAGC [CGCUCU] | 2.02 ± 0.061 | 1.93 ± 0.048 |
| GCUGUCACCGGUGUAUUACCCUAGUGGUCGACCGGUCUGAUGAGUCUCAAGCUAGACGAAACAGC [CAAGCU] | 1.981 ± 0.0081 | 1.892 ± 0.003 |
| GCUGUCACCGGUGUAUUACCCUAGUGGUCGACCGGUCUGAUGAGUCUGACCGAAGACGAAACAGC [GACCGA] | 1.97 ± 0.032 | 1.8545 ± 0.00036 |
| GCUGUCACCGGUGUAUUACCCUAGUGGUCGACCGGUCUGAUGAGUCUGUUACAAGACGAAACAGC [GUUACA] | 1.92 ± 0.031 | 1.8382 ± 0.0018 |
| GCUGUCACCGGUGUAUUACCCUAGUGGUCGACCGGUCUGAUGAGUCUAGCGUUAGACGAAACAGC [AGCGUU] | 1.93 ± 0.028 | 1.805 ± 0.011 |
| GCUGUCACCGGUGUAUUACCCUAGUGGUCGACCGGUCUGAUGAGUCUUUGCUAAGACGAAACAGC [UUGCUA] | 1.95 ± 0.045 | 1.897 ± 0.0028 |
| GCUGUCACCGGUGUAUUACCCUAGUGGUCGACCGGUCUGAUGAGUCUAAGCAUAGACGAAACAGC [AAGCAU] | 1.88 ± 0.027 | 1.705 ± 0.0018 |
| GCUGUCACCGGUGUAUUACCCUAGUGGUCGACCGGUCUGAUGAGUCUCUGGGAAGACGAAACAGC [CUGGGA] | 2.03 ± 0.061 | 1.857 ± 0.015 |
| GCUGUCACCGGUGUAUUACCCUAGUGGUCGACCGGUCUGAUGAGUCUUUCCCAAGACGAAACAGC [UUCCCA] | 1.92 ± 0.032 | 1.91 ± 0.037 |
| GCUGUCACCGGUGUAUUACCCUAGUGGUCGACCGGUCUGAUGAGUCUCCGAUAAGACGAAACAGC [CCGAUA] | 1.92 ± 0.049 | 1.72 ± 0.059 |

| Variant | normalized RNA/DNA level with ligand (log10) (hypoxanthine [1]) | normalized RNA/DNA level without ligand (log10) (hypoxanthine [2]) |
| --- | --- | --- |
| GCUGUCACCGGUGUAUUACCCUAGUGGUCGACCGGUCUGAUGAGUCUUAUACCAGACGAAACAGC [UAUACC] | 1.95 ± 0.12 | 1.88 ± 0.014 |
| GCUGUCACCGGUGUAUUACCCUAGUGGUCGACCGGUCUGAUGAGUCUCAGAGUAGACGAAACAGC [CAGAGU] | 1.97 ± 0.035 | 1.79 ± 0.056 |
| GCUGUCACCGGUGUAUUACCCUAGUGGUCGACCGGUCUGAUGAGUCUAAAAGCAGACGAAACAGC [AAAAGC] | 1.9 ± 0.027 | 1.77 ± 0.042 |
| GCUGUCACCGGUGUAUUACCCUAGUGGUCGACCGGUCUGAUGAGUCUACCCUAAGACGAAACAGC [ACCCUA] | 1.937 ± 0.014 | 1.85 ± 0.047 |
| GCUGUCACCGGUGUAUUACCCUAGUGGUCGACCGGUCUGAUGAGUCUGCGCUGAGACGAAACAGC [GCGCUG] | 1.86 ± 0.028 | 1.36 ± 0.03 |
| GCUGUCACCGGUGUAUUACCCUAGUGGUCGACCGGUCUGAUGAGUCUGCUAGAAGACGAAACAGC [GCUAGA] | 1.92 ± 0.031 | 1.71 ± 0.029 |
| GCUGUCACCGGUGUAUUACCCUAGUGGUCGACCGGUCUGAUGAGUCUCUACGAAGACGAAACAGC [CUACGA] | 1.97 ± 0.034 | 1.87 ± 0.034 |
| GCUGUCACCGGUGUAUUACCCUAGUGGUCGACCGGUCUGAUGAGUCUAGCUUUAGACGAAACAGC [AGCUUU] | 1.94 ± 0.032 | 1.908 ± 0.0022 |
| GCUGUCACCGGUGUAUUACCCUAGUGGUCGACCGGUCUGAUGAGUCUCCCACCAGACGAAACAGC [CCCACC] | 2.01 ± 0.063 | 1.96 ± 0.032 |
| GCUGUCACCGGUGUAUUACCCUAGUGGUCGACCGGUCUGAUGAGUCUUCUUAGAGACGAAACAGC [UCUUAG] | 1.93 ± 0.042 | 1.66 ± 0.017 |
| GCUGUCACCGGUGUAUUACCCUAGUGGUCGACCGGUCUGAUGAGUCUUCUUGGAGACGAAACAGC [UCUUGG] | 1.92 ± 0.035 | 1.751 ± 0.008 |
| GCUGUCACCGGUGUAUUACCCUAGUGGUCGACCGGUCUGAUGAGUCUCACCGGAGACGAAACAGC [CACCGG] | 1.875 ± 0.0026 | 1.58 ± 0.13 |
| GCUGUCACCGGUGUAUUACCCUAGUGGUCGACCGGUCUGAUGAGUCUUUAGCCAGACGAAACAGC [UUAGCC] | 1.95 ± 0.065 | 1.88 ± 0.025 |
| GCUGUCACCGGUGUAUUACCCUAGUGGUCGACCGGUCUGAUGAGUCUUUGCCAAGACGAAACAGC [UUGCCA] | 1.95 ± 0.017 | 1.94 ± 0.028 |
| GCUGUCACCGGUGUAUUACCCUAGUGGUCGACCGGUCUGAUGAGUCUGGCGUUAGACGAAACAGC [GGCGUU] | 2.0064 ± 0.00076 | 1.966 ± 0.011 |
| GCUGUCACCGGUGUAUUACCCUAGUGGUCGACCGGUCUGAUGAGUCUACACACAGACGAAACAGC [ACACAC] | 1.92 ± 0.023 | 1.74 ± 0.022 |
| GCUGUCACCGGUGUAUUACCCUAGUGGUCGACCGGUCUGAUGAGUCUUCCUCUAGACGAAACAGC [UCCUCU] | 1.99 ± 0.053 | 1.98 ± 0.029 |
| GCUGUCACCGGUGUAUUACCCUAGUGGUCGACCGGUCUGAUGAGUCUACUUUCAGACGAAACAGC [ACUUUC] | 1.98 ± 0.046 | 1.95 ± 0.044 |
| GCUGUCACCGGUGUAUUACCCUAGUGGUCGACCGGUCUGAUGAGUCUUUAUCAAGACGAAACAGC [UUAUCA] | 1.953 ± 0.0031 | 1.83 ± 0.024 |
| GCUGUCACCGGUGUAUUACCCUAGUGGUCGACCGGUCUGAUGAGUCUCCUCCUAGACGAAACAGC [CCUCCU] | 1.95 ± 0.074 | 1.96 ± 0.026 |
| GCUGUCACCGGUGUAUUACCCUAGUGGUCGACCGGUCUGAUGAGUCUAGUUGUAGACGAAACAGC [AGUUGU] | 1.93 ± 0.043 | 1.63 ± 0.076 |
